Test results published in the supplement of paper PMC12764529.
± gives the half width of the 95% confidence interval.

Tests used:
[1] = folding stability dG unfold from trypsin proteolysis; higher = more stable
Summary of the method: (§1)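 Digests were run with trypsin and chymotrypsin at 11 concentrations in threefold dilutions, plus a no-protease condition, on designed mini-proteins in a PA-tagged cDNA display construct. The mini-proteins were under 80 residues, had no cysteine, and were kept only when AlphaFold2 dimer inter-PAE was above 15. After sequencing, Bayesian fitting of the counts gave K50, from which unfolding free energy was derived against a sequence-predicted unfolded-state K50 and a shared folded-state K50, per protease or combined.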

[2] = folding stability dG unfold from chymotrypsin proteolysis; higher = more stable
Summary of the method: as §1

[3] = folding stability dG unfold (combined trypsin and chymotrypsin); higher = more stable
Summary of the method: as §1

| Sequence | folding stability dG unfold [1] [kcal/mol] | folding stability dG unfold [2] [kcal/mol] | folding stability dG unfold [3] [kcal/mol] |
| --- | --- | --- | --- |
| SAGGELIEKAIEEALENGEEVEIEVVLRDENGELYRIRIRVRRERLPDGEVKTEIEIEIERFPLPEESAGGS [r16_323_TrROS_Hall] | 4.28 ± 0.2 | 4.66 ± 0.11 | 4.6 ± 0.12 |
| SAGGSAGGSAGMTVPTSVEVSPDGTVRVRQLRWVRHGDGWRPFTFTVTLPISDDALKALKSAGGSAGGSAGG [r17_415_TrMRF] | 1.02 ± 0.038 | 1.14 ± 0.059 | 1.12 ± 0.038 |
| SAGGSAGGSAGLPPGDYRLFPFTVTITIPPIKVKDPNGDEHEIDNLEISITIYFFVPAGDSAGGSAGGSAGG [r11_907_TrROS] | 3.43 ± 0.15 | 4.58 ± 0.12 | 4.03 ± 0.34 |
| SAGMMKIKITLENGEELTIEVSPEEKEKLKEGDIVEIRLEDGTVFKAEVVEVRPPGETVKIRITEAVPSAGG [r19_274_TrROS_Hall] | 1.67 ± 0.086 | 2.9 ± 0.035 | 2.54 ± 0.16 |
| SAGGSLSNVTPLGTTPVTLPGSTVTITVYKSDTPGVVYVKIEYPETGVEKVRVLSPEELEKVIEELLSAGGS [r8_469_JUSTAS] | 2.69 ± 0.071 | 3.199 ± 0.025 | 3.07 ± 0.054 |
| SAGGSASTYEPEVYTFTGKNKKIKVIVVKPKDNPTAKIIVYDENGNVLATIEFPAENVEKALKELASAGGSA [r15_940_TrMRF] | 2.02 ± 0.029 | 2.12 ± 0.064 | 2.1 ± 0.083 |
| SAGGSAGGSAEPGPEELAKALAGELEKRFGKPVKEVKAYEIPGEKRYIVTAKLDDGEFTIIASAGGSAGGSA [r18_145_TrMRF] | -0.267 ± 0.28 | -0.235 ± 0.28 | -0.121 ± 0.38 |
| SAGGSAGGSAGGSSIRIWIFFPGYFFRITIKPDPGNPNMIKIDITEIIPPDQMDDEDLISAGGSAGGSAGGS [r4_316_TrROS] | 3.53 ± 0.26 | 4.38 ± 0.14 | 4.38 ± 0.3 |
| SAGMKPGETITIVLPDGTKIEIKILENGEVEIVKIEKKEDGTYKITIRVKVNGKEIEKEITLPPGAKILSAG [r5_394_TrROS_Hall] | 2.52 ± 0.11 | 2.04 ± 0.12 | 2.16 ± 0.27 |
| SAGGKVYRLPDGTRVLEVEVDGELYRLVVRRPDGEELVLEFESREEALEAAKALAEAGWEIVAVERVPSAGG [r13_727_TrROS_Hall] | 0.787 ± 0.038 | 0.807 ± 0.062 | 0.86 ± 0.06 |
| SAGGSAMFYLLKVELPDGKVLEIRIEATPEEKEEFVEKIKSHPEVKSVELEPISKEEAEELGFEEISAGGSA [r15_39_TrMRF] | 2.62 ± 0.12 | 3.274 ± 0.025 | 3.08 ± 0.12 |
| SAGGSAKVKIYLIKLPPNGNPLEVIKKVKEKGGNAIIVSGPGLHAVIEADEPEEAAKKAKEILEKLSAGGSA [r15_546_TrMRF] | 0.361 ± 0.1 | 0.121 ± 0.2 | 0.292 ± 0.097 |
| SAGGSAGGSAGKVTLVFKTKEDALNAIKELAEKEGLKVKIVKIEELPNGLIKITVEIEKPSAGGSAGGSAGG [r11_304_TrROS_Hall] | 3.99 ± 0.25 | 4.2 ± 0.095 | 4.22 ± 0.17 |
| SGPAEGFEAELVEEYTLPETERVFVYRVTHPDGTEYVLVVVRNPDGTWEPVFVYRPDDPDALREALELLGSA [r9_1069_TrMRF] | 3.11 ± 0.081 | 3.595 ± 0.022 | 3.47 ± 0.057 |
| SAGGSAGGSPGKPKTIPVEMVFFNPEDGYFFEMRSEIYVPPDGNLQIDISIELYPVPPNAPLISAGGSAGGS [r12_116_TrROS] | 2.33 ± 0.2 | 1.46 ± 0.039 | 1.84 ± 0.18 |
| SYIKIPFNVWMPPDNAEAMAEEFANNLAQKHGWKIKGIKPVEPVPSPDGEWYPFRVSITIRMPDPEAINASA [r9_302_TrROS] | 1.62 ± 0.031 | 2.07 ± 0.13 | 1.82 ± 0.098 |
| SSSSMKTVFDPNRPYPRTVLVTFLPDGTVVITAPGKKLSTVKVEIEPPPPLELRPRVSPNGERSPGYLRLGS [r1_496_JUSTAS] | 1.1 ± 0.18 | 1.76 ± 0.14 | 1.47 ± 0.16 |
| SMKVTLDGKGSVTTMPAEQLEVLIKELKEKGYKVKILSEEPDPNSDTVNYTIEITPPKPEKEEFENEELKSA [r9_448_JUSTAS] | 0.948 ± 0.039 | 1.94 ± 0.12 | 1.59 ± 0.12 |
| SAGGSAGGSAMIEISEEELEKLLAETPEEEAKEVKIERIPDIGLINVTIPSGKVIKVKIKESAGGSAGGSAG [r3_291_JUSTAS] | -0.241 ± 0.11 | 1.43 ± 0.077 | 0.911 ± 0.086 |
| SAGGMPEDMKLKFKVVDFRPHPHPDGYQIVELFYNDKLLRRLRVPPGLAVKLAKELPEDVALVTLPESAGGS [r8_41_TrMRF] | 0.828 ± 0.086 | 1.53 ± 0.14 | 1.28 ± 0.09 |
| SAGGSAGGSELPEGVEVETEPIAEIEITDEDGRKYKISIEAVKIRGPDGKEFLVISVSIEELPSAGGSAGGS [r12_544_TrROS_Hall] | 3.25 ± 0.56 | 4.16 ± 0.34 | 3.81 ± 0.62 |

| Sequence | folding stability dG unfold [1] [kcal/mol] | folding stability dG unfold [2] [kcal/mol] | folding stability dG unfold [3] [kcal/mol] |
| --- | --- | --- | --- |
| SAGMVKITVPSSVGPVDPSKALTFEKDDTRYILVPGEVAKEIEEKYPDLPIEIEPMSEEEAEKILKELSAGG [r19_271_JUSTAS] | -0.0536 ± 0.2 | 0.624 ± 0.16 | 0.258 ± 0.41 |
| SAAKITEVDVEVGGDTITTTFRLEIDGKPYLAVTRLEPLTDPDGNPRFIAVTELYDEDGNLVATLPSDLSAG [r14_465_TrMRF] | 1.59 ± 0.032 | 2.325 ± 0.018 | 2.06 ± 0.059 |
| SASSVEKEFDSIEDALKAIKEALAKKVPVKMKMDPETVKELKKAGFPDIDVTKEKLPNGNEYYLLELLFSAG [r14_127_JUSTAS] | 1.06 ± 0.019 | 1.2 ± 0.051 | 1.15 ± 0.058 |
| SAGMDPSDPNSITTLTTEVEPLPDGSTRVTTYTKLPDGTIVKNVTTLDPAGNVLTTTTTPIPPEALNASAGG [r19_285_JUSTAS] | 3.56 ± 0.17 | 3.85 ± 0.06 | 3.75 ± 0.096 |
| SAGGPKPGEKWIARTKEGLVPITLEGDKVTITDALTGKKTVIPIPGASLEEIKELLLSEPDYEVYPESAGGS [r16_583_JUSTAS] | -0.603 ± 0.37 | -0.737 ± 0.32 | -0.404 ± 0.19 |
| SAGGKYEYDPDNGYYRDEDGKMYYPMPPQIPPIEIPIPINLPNGQKLNIPVEFRTIEDALDALKKFFSAGGS [r8_440_TrROS] | 0.697 ± 0.033 | 1.13 ± 0.091 | 1.01 ± 0.14 |
| SAGMKAYNIKELKIEKIEKKGNKIKIKISGKGKFYFKTFSNGSAIIYIKKTNKAYYIDSNGKIVYIKDTSAG [r5_348_TrMRF] | 1.75 ± 0.12 | 1.56 ± 0.13 | 1.76 ± 0.27 |
| SAGGSAGGSAGLEIKIPNGNKTITVEKTKDYYKATIYFPETGEKVEFTFPPNVSLSLLDISAGGSAGGSAGG [r11_772_TrMRF] | 1.98 ± 0.11 | 1.12 ± 0.073 | 1.62 ± 0.18 |
| SAGGSEDRYLVHVLVRFPDELRELYLEARSPEEVERSVRRAIEELYPERLEDVEVVVFARPVSEPLSAGGSA [r2_111_TrMRF] | 2.38 ± 0.038 | 1.91 ± 0.081 | 2.14 ± 0.061 |
| SAGGSAGGYIMIPPGAEIDVNPENGKIKIKFRNPDNGEEEKITFDVPPGVKIHMWDNWIMIELPSAGGSAGG [r6_804_TrROS] | 3.3 ± 0.18 | 3.14 ± 0.12 | 3.29 ± 0.29 |
| SAGGSMTLEELKNMTVEELRELLGEDAEVTVDEETGTITIRVPGKEVTIEVDEETGEVKIVEVKPVSAGGSA [r2_470_TrROS_Hall] | 3.31 ± 0.24 | 2.27 ± 0.13 | 2.89 ± 0.26 |
| SAGGSAGGSDKYVVVIRVVNKETKKVTTLVFEGLKTPEELKAAVEALLPPGVVKVEIRVVKLPSAGGSAGGS [r20_29_TrROS_Hall] | 2.89 ± 0.18 | 3.28 ± 0.12 | 3.18 ± 0.15 |
| SAGGSEFIPVVAEFPEDVTPEDVARAVRELERAGFVVERVEVERFPDPDGRERYRVRVVLRRPEELSAGGSA [r2_442_TrMRF] | 3.53 ± 0.081 | 3.841 ± 0.0097 | 3.732 ± 0.035 |
| SAGGSAGGSAKPNWVIIEMTIQIPEGDPEEIKEIMEPFGWEITGVDNNYIKVSILMPPGAKISAGGSAGGSA [r18_168_TrROS] | 1.26 ± 0.14 | 1.14 ± 0.043 | 1.26 ± 0.25 |
| SAGGSAKKLPAEAVAKELAERLSKELGLTIKRVEVEVIDPEKGLVRVTVVYETPYGYLKREILLPVSAGGSA [r15_32_TrMRF] | 1.83 ± 0.026 | 3.825 ± 0.033 | 3.31 ± 0.1 |
| SMTLVLENEDGSLYRIEFDEETGEIYIYNAETGEKYRITFKDGKTEEINAKDLSLEELKALPGLKIEPVPSA [r9_205_TrROS_Hall] | 2.74 ± 0.061 | 3.285 ± 0.023 | 3.13 ± 0.056 |
| SAGGSAGGSAGGSLKVEVTLDPETNELTVRTTLTLPPPPPPPPTTTTTTTTTLAPGETASAGGSAGGSAGGS [r10_86_TrROS_Hall] | -0.349 ± 0.43 | 0.776 ± 0.22 | 0.0927 ± 0.38 |
| SAGGSAPGWYPITYEFEDNNKEIKIEVYYPKEDPMVGVDIEDPDGKVIFTIWFPADNAEKALKEILSAGGSA [r15_940_TrROS] | 1.23 ± 0.07 | 1.49 ± 0.071 | 1.39 ± 0.092 |
| SAGGSAGGSDDTAEFEGPVNVTLTLDGKPVNINAWVTRLPPGWFRIVLPDGVIELPGGNLRVGSAGGSAGGS [r12_790_TrMRF] | 0.84 ± 0.039 | 1.31 ± 0.069 | 1.16 ± 0.051 |
| SAGMGSDVPVLTAVLSVLNPETGEEVTIEVPGRNDYGEGKLIRPVSPEDLLAAALAVADALLKDPSLKASAG [r5_426_TrMRF] | 1.36 ± 0.036 | 0.24 ± 0.22 | 0.804 ± 0.11 |
| SAGGMKVEKNTIYIEVEKDMSAEEVAKKIAEELKKKGLKVEIKVEKKEDGTKVIRIKVDGKEIEIYASAGGS [r16_771_TrROS_Hall] | 1.84 ± 0.094 | 1.13 ± 0.18 | 1.51 ± 0.3 |
